This is an account of results in patent US8394929B2, “Nogo receptor-mediated blockade of axonal growth” (Yale University, priority 2000, dated 2013).

Assay [1] deals with CNS myelin induced neurite outgrowth inhibition. Put plainly: Blockade of CNS myelin induced neurite outgrowth inhibition in chick DRG neurons. It counts as cell-based. As for the experimental part:
To determine the antagonistic activity of Peptide 140 against CNS myelin, the above synthetic peptide was added approximately 10 min before application of CNS myelin. 30 min later, cultures were fixed and growth cone collapse was assessed following staining with rhodamine-phalloidin. For neurite outgrowth assays, plastic chamber slide were coated with 100 μg ml^−1 poly-L-lysine, washed, and dried. 3 μl drops of PBS containing CNS myelin were spotted and dried. Slides were then rinsed and coated with 10 μg ml fs24^−1 laminin before addition of dissociated E12 chick DRGs. Peptide 140, or the scrambled version of Peptide 140, was added at the time of cell plating. Cultures were grown for 5-7 h after which neurite outgrowth was assessed.
Although the role of the GPI anchor may be to regulate NgR cellular compartmentalization, another possible role for the GPI linkage is to provide a NgR cleavage site. Cleaving NgR could serve to affect hNogo-A (1055-1120) signaling by rendering a neuron insensitive to hNogo-A (1055-1120) and by releasing soluble NgR that could then act on adjacent cells to modulate hNogo-A (1055-1120) signaling. To determine if soluble mNgR modulates hNogo-A (1055-1120)-dependent inhibition, a soluble mNgR was generated by inserting a truncated cDNA encoding mNgR residues 1-348 in frame with a myc-His carboxy tag into pcDNA3.1. The resulting plasmid expressing mNgREcto was transfected into HEK293T cells, and conditioned media containing mNgREcto protein was collected. To test the effect of mNgREcto on Nogo signaling, E13 dissociated DRGs were plated in the presence of hNogo-A (1055-1120) or myelin. The inhibitors were presented in either soluble or substrate-bound forms. For neurite outgrowth assays on hNogo-A (1055-1120) or myelin substrates, Permanox chamber slides were coated with 100μ, fs24 g ml^−1 poly-L-Lysine, washed, and then 3-μl drops of phosphate-buffered saline (hereinafter “PBS”) containing 0, 10, 50, or 150 ng of GST-hNogo-A (1055-1120) or myelin were spotted and dried. GST-hNogo-A (1055-1120) and myelin were prepared as previously described (GrandPre et al., supra; Fournier et al., J. Cell Biol. 149:411-421, 2000). After three PBS washes, slides were coated with 10 μg ml^−1 laminin. Laminin was then aspirated and dissociated E13 chick DRG neurons were added. After 6-8 hr of outgrowth, cultures were fixed and neurite outgrowth lengths were assessed. For blockade experiments with NgREcto, spots were incubated with HEK293T cell conditioned media or NgREcto-transfected-HEK293T cell conditioned media following for 1 hr following the laminin coating step and before the addition of dissociated neurons. […] Thus, soluble fragments of NgR might serve physiologically or pharmacologically to reduce GST-hNogo-A (1055-1120) inhibition of axonal regeneration.

Assay [2] has as its system chick E12 dorsal root ganglion growth cones. Put plainly: Growth cone collapse assay in chick dorsal root ganglion explants. It counts as cell-based. As for the experimental part:
For all experiments involving cell culture, the following methods were employed. The culture of embryonic chick E10 and E12 dorsal root ganglion explants and dissociated neurons utilized methods described for E7 dorsal root ganglion cultures (Takahashi et al., (1998) Nature Neurosci. 1, 487-493; Takahashi et al., (1999) Cell 99, 59-69; Goshima et al., (1995) Nature 376, 509-514; Jin & Strittmatter, (1997) J. Neurosci. […]). NGF-differentiated PC12 cells were cultured as described (Strittmatter et al., (1994) J. Neurosci. 14, 2327-2338). Embryonic spinal cord explants (rat E10 or chick E5) were cultured for 7-14 days in the presence of PDGF-AA to induce differentiation of some cells into mature oligodendrocytes (Vartanian et al., (1999) Proc. Natl. Acad. Sci. USA 96, 731-735). The procedure for growth cone collapse assays is identical to that for analysis of Sema3A-induced growth cone collapse (Takahashi et al., (1998) Nature Neurosci. 1, 487-493; Takahashi et al., (1999) Cell 99, 59-69; Goshima et al., (1995) Nature 376, 509-514; Jin & Strittmatter, (1997) J. Neurosci. 17, 6256-6263). The method for analysis of total neurite outgrowth has also been described (Goshima et al., (1995) Nature 376, 509-514; Jin & Strittmatter, (1997) J. Neurosci. 17, 6256-6263; Strittmatter et al., (1994) J. Neurosci. 14, 2327-2338). In outgrowth assays, proteins and peptides were added one hour after plating to minimize any effect on the total number of adherent cells. To test the effect of substrate-bound GST or GST-Nogo, the protein solutions were dried on poly-L-lysine coated glass, washed and then coated with laminin. For E12 cultures, the neuronal identity of cells was verified by staining with anti-neurofilament antibodies (2H3, Develomental Studies Hybridoma Bank) and neurites were traced by observation of rhodamine-phalloidin staining of F-actin in processes.
The expression of recombinant Nogo in HEK293T cells allows a rigorous test of whether this protein has axon outgrowth inhibiting effects. Washed membrane fractions from vector- or hNogo-A-Myc-transfected HEK293T cells were added to chick E12 dorsal root ganglion explant cultures. Growth cone morphology was assessed after a thirty minute incubation at 37° C. by fixation and rhodamine-phalloidin staining.
Briefly, for growth cone collapse, DRG explants were plated on plastic chamber slides precoated with 100 μg ml^−1 poly-L-lysine and 10 μg ml^−1 laminin. Cultures were grown 14-16 h prior to treatment.

Like-named read-outs stand apart in the source and are kept apart here.

For “Peptide 140: synthetic peptide of amino acids #1055-1094 of the human NogoA protein, acetylated and amidated at the termini (Ac-RIYKGVIQAIQKSDEGHPFRAYLESEVAISEELVQKYSNS-NH2; UniProt Q9NQC3 1055-1094, looked up, fragment)”, in assay [1], the “blockade of CNS myelin induced neurite outgrowth inhibition (in words)” value is “partial neutralization”. In assay [1] (bound CNS myelin), the “concentration at which maximal activity is obtained” value is listed as “approximately 250 nM”. Also, the “neurite outgrowth on a 20 ng spot of myelin (as compared with control outgrowth)” value in assay [1] (following treatment with Peptide 140, E12 chick DRG) was found to be 65%. Moreover, the “growth cone collapse activity (in words)” value in assay [2] (added to DRG explant cultures, thirty minutes) is listed as “does not induce significant growth cone collapse”.
Take “Pep2-41: 2-41 fragment of the 66 amino acid region of Nogo, acetylated and amidated at the termini (Ac-RIYKGVIQAIQKSDEGHPFRAYLESEVAISEELVQKYSNS-NH2)”: the entries for the “blockade of CNS myelin induced neurite outgrowth inhibition (in words)” value in assay [1] and in assay [1] (listed as 2-41 fragment) were “can reverse the inhibition of neurite outgrowth” and “blocks”, respectively.

B1: NgR-ecto: secreted fragment of amino acid residues 1-348 of the murine NgR, in HEK293T conditioned medium (protein)
chain: CPGACVCYNEPKVTTSCPQQGLQAVPTGIPASSQRIFLHGNRISHVPAASFQSCRNLTILWLHSNALARIDAAAFTGLTLLEQLDLSDNAQLHVVDPTTFHGLGHLHTLHLDRCGLRELGPGLFRGLAALQYLYLQDNNLQALPDNTFRDLGNLTHLFLHGNRIPSVPEHAFRGLHSLDRLLLHQNHVARVHPHAFRDLGRLMTLYLFANNLSMLPAEVLMPLRSLQYLRLNDNPWVCDCRARPLWAWLQKFRGSSSEVPCNLPQRLADRDLKRLAASDLEGCAVASGPFRPIQTSQLTDEELLSLPKCCQPDAADKASVLE
modifications: left off: small tags and cut ends
notes: secreted fragment of amino acid residues 1-348 of the murine NgR, in HEK293T conditioned medium
Consider B1, for which the “blockade of CNS myelin induced neurite outgrowth inhibition (in words)” value in assay [1] was “blocks the ability of CNS myelin to inhibit axonal outgrowth”; in assay [1] (listed as NgR ectodomain protein), “blocked”; in assay [1] (listed as NgREcto), “partially reversed”; in assay [1] (listed as mNgR ectodomain protein) it was “blocked”.

B2: AP-Nogo: fusion protein of His6 tag, placental alkaline phosphatase (AP) and the 66 amino acid active domain of Nogo (protein)
chain: HHHHHHIIPVEEENPDFWNREAAEALGAAKKLQPAQTAAKNLIIFLGDGMGVSTVTAARILKGQKKDKLGPEIPLAMDRFPYVALSKTYNVDKHVPDSGATATAYLCGVKGNFQTIGLSAAARFNQCNTTRGNEVISVMNRAKKAGKSVGVVTTTRVQHASPAGTYAHTVNRNWYSDADVPASARQEGCQDIATQLISNMDIDVILGGGRKYMFRMGTPDPEYPDDYSQGGTRLDGKNLVQEWLAKRQGARYVWNRTELMQASLDPSVTHLMGLFEPGDMKYEIHRDSTLDPSLMEMTEAALRLLSRNPRGFFLFVEGGRIDHGHHESRAYRALTETIMFDDAIERAGQLTSEEDTLSLVTADHSHVFSFGGYPLRGSSIFGLAPGKARDRKAYTVLLYGNGPGYVLKDGARPDVTESESGSPEYRQQSAVPLDEETHAGEDVAVFARGPQAHLVHGVQEQTFIAHVMAFAACLEPYTACDLAPPAGTTDAAHPGRIYKGVIQAIQKSDEGHPFRAYLESEVAISEELVQKYSNSALGHVNCTIKELRRLFLVDDLVDSLK
For B2, in assay [2], the “relative potency in growth cone collapse (comparator in the words)” value is given as “slightly more potent than GST-Nogo”. Moreover, in assay [2] (conditioned medium, AP-fusion protein final concentration 20 nM, E12 chick DRG), the “growth cone collapse (in words)” value is “potent growth-cone-collapsing agent”.

B3: GST-Nogo: GST fusion protein of the 66 amino acid lumenal-extracellular fragment of Nogo-A, expressed in E. coli (protein)
chain: RIYKGVIQAIQKSDEGHPFRAYLESEVAISEELVQKYSNSALGHVNCTIKELRRLFLVDDLVDSLK
modifications: also: GST fusion protein
notes: GST fusion protein of the 66 amino acid lumenal-extracellular fragment of Nogo-A, expressed in E. coli
B3: the “relative potency in growth cone collapse (comparator in the words)” value in assay [2] is recorded as “even more potent than the urea-extracted protein”; in assay [2] (listed as GST-Nogo-66) it was “two orders of magnitude more potent than Amino-Nogo”. For the same molecule, the “concentration acutely altering growth cone morphology (as low as)” value in assay [2] (soluble GST-Nogo purified on glutathione-Sepharose resin) was found to be 1 nM. The “growth cone morphology (in words)” value in assay [2] (soluble form at 100 nM, chick E12 DRG) was “collapses chick E12 dorsal root ganglion growth cones”. The EC50 in assay [2] (urea-extracted GST-Nogo, chick E12 dorsal root ganglion neurons, read-out: EC50 growth cone collapsing activity) is 50 nM.

The EC50 is the midpoint of the concentration-response curve.
